Measured values taken from patent US20240409645A1 (DUALYX, published 2024).

T1: human IL-2 receptor (IL-2Rα/IL-2Rβ/γc) (human, UniProt P01589 22-272; P14784 27-551; P31785 23-369)
T1 sequence 1: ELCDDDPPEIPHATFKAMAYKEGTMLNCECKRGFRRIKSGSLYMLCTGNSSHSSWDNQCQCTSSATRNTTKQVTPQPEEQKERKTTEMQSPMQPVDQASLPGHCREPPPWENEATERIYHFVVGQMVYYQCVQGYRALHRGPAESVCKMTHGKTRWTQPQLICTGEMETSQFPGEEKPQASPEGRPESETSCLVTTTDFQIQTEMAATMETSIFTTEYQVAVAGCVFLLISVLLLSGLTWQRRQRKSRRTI
T1 sequence 2: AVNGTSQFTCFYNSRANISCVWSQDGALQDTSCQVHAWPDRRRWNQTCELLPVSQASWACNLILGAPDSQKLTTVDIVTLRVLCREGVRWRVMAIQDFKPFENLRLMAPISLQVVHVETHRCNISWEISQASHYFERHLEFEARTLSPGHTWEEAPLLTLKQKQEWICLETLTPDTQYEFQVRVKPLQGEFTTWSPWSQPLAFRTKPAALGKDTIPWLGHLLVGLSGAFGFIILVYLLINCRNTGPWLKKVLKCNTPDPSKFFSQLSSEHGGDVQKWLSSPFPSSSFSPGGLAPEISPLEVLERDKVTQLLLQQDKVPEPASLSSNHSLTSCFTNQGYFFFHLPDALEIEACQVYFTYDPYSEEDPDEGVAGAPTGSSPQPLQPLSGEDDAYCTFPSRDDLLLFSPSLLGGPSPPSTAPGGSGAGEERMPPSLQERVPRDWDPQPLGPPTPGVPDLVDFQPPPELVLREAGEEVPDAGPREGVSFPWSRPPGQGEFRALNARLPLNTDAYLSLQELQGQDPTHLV
T1 sequence 3: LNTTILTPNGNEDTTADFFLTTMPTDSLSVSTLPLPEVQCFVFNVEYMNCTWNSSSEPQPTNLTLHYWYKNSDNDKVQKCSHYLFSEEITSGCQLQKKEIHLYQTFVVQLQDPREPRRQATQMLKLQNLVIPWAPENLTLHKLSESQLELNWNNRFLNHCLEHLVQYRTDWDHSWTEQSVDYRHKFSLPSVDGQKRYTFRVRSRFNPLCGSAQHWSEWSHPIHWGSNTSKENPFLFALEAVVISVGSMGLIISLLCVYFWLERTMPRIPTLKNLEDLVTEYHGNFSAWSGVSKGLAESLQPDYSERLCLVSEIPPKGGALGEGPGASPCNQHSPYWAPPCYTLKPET

B1: DC00046 (other)
chain 1: QVQLVESGGGLVQPGGSLRLSCATSGFTFRNNFMSWVRQAPGKGLEWVSTISYGGESTTYAESVKGRFTISRDNAKNTLYLQMNNLKPEDTAVYYCAKATSYDSIRSGSRGQGTQVTVSSGGGGSGGGGSGGGGSQVQLVESGGGLVQPGGSLRLSCATSGFTFRNNFMSWVRQAPGKGLEWVSTISYGGESTTYAESVKGRFTISRDNAKNTLYLQMNNLKPEDTAVYYCAKATSYDSIRSGSRGQGTQVTVSSDKTHTCPPCPAPEAAGGPSVFLFPPKPKDTLMISRTPEVTCVVVDVSHEDPEVKFNWYVDGVEVHNAKTKPREEQYNSTYRVVSVLTVLHQDWLNGKEYKCKVSNKALGAPIEKTISKAKGQPREPQVYTLPPSRDELTKNQVSLTCLVKGFYPSDIAVEWESNGQPENNYKTTPPVLDSDGSFLLYSKLTVDKSRWQQGNVFSCSVMHEALHNHYTQKSLSLSPGK
chain 2: EVQLVESGGGLVQTGGSLRLSCAASGGTFSRDAMAWFRQVPGKEREFVALISWSGATTNYADSVKGRFAISRDNGKNTVYLQMNRLKPADTAIYYCAADRRPMGSRSYFEPTEYDDWGQGTQVTVSSGGGGSGGGGSGGGGSQVQLVESGGGLVQPGGSLRLSCATSGFTFRNNFMSWVRQAPGKGLEWVSTISYGGESTTYAESVKGRFTISRDNAKNTLYLQMNNLKPEDTAVYYCAKATSYDSIRSGSRGQGTQVTVSSGGGGSGGGGSGGGGSQVQLVESGGGLVQAGGSLTLSCAAPGRTFGTDVVGWFRQAPGKEREFVASISRSGDGIYYDDSVKGRFTISRNNAWNTVNLQMNSLKVEDTAVYYCAAGDGWSTYDYWGQGTQVTVSSGGGGSGGGGSGGGGSDKTHTCPPCPAPEAAGGPSVFLFPPKPKDTLMISRTPEVTCVVVDVSHEDPEVKFNWYVDGVEVHNAKTKPREEQYNSTYRVVSVLTVLHQDWLNGKEYKCKVSNKALGAPIEKTISKAKGQPREPQVYTLPPSRDELTKNQVSLTCLVKGFYPSDIAVEWESNGQPENNYKTTPPVLDSDGSFFLYSRLTVDKSRWQQGNVFSCSVMHEALHNHYTQKSLSLSPGK
B2: DC00049 (other)
chain 1: QVQLVESGGGLVQPGGSLRLSCATSGFTFRNNFMSWVRQAPGKGLEWVSTISYGGESTTYAESVKGRFTISRDNAKNTLYLQMNNLKPEDTAVYYCAKATSYDSIRSGSRGQGTQVTVSSGGGGSGGGGSGGGGSQVQLVESGGGLVQPGGSLRLSCATSGFTFRNNFMSWVRQAPGKGLEWVSTISYGGESTTYAESVKGRFTISRDNAKNTLYLQMNNLKPEDTAVYYCAKATSYDSIRSGSRGQGTQVTVSSDKTHTCPPCPAPEAAGGPSVFLFPPKPKDTLMISRTPEVTCVVVDVSHEDPEVKFNWYVDGVEVHNAKTKPREEQYNSTYRVVSVLTVLHQDWLNGKEYKCKVSNKALGAPIEKTISKAKGQPREPQVYTLPPSRDELTKNQVSLTCLVKGFYPSDIAVEWESNGQPENNYKTTPPVLDSDGSFLLYSKLTVDKSRWQQGNVFSCSVMHEALHNHYTQKSLSLSPGK
chain 2: QVQLVESGGGLVQAGGSLTLSCAAPGRTFGTDVVGWFRQAPGKEREFVASISRSGDGIYYDDSVKGRFTISRNNAWNTVNLQMNSLKVEDTAVYYCAAGDGWSTYDYWGQGTQVTVSSGGGGSGGGGSGGGGSEVQLVESGGGLVQTGGSLRLSCAASGGTFSRDAMAWFRQVPGKEREFVALISWSGATTNYADSVKGRFAISRDNGKNTVYLQMNRLKPADTAIYYCAADRRPMGSRSYFEPTEYDDWGQGTQVTVSSGGGGSGGGGSGGGGSDKTHTCPPCPAPEAAGGPSVFLFPPKPKDTLMISRTPEVTCVVVDVSHEDPEVKFNWYVDGVEVHNAKTKPREEQYNSTYRVVSVLTVLHQDWLNGKEYKCKVSNKALGAPIEKTISKAKGQPREPQVYTLPPSRDELTKNQVSLTCLVKGFYPSDIAVEWESNGQPENNYKTTPPVLDSDGSFFLYSRLTVDKSRWQQGNVFSCSVMHEALHNHYTQKSLSLSPGK
B3: DC00048 (other)
chain 1: QVQLVESGGGLVQPGGSLRLSCATSGFTFRNNFMSWVRQAPGKGLEWVSTISYGGESTTYAESVKGRFTISRDNAKNTLYLQMNNLKPEDTAVYYCAKATSYDSIRSGSRGQGTQVTVSSGGGGSGGGGSGGGGSQVQLVESGGGLVQPGGSLRLSCATSGFTFRNNFMSWVRQAPGKGLEWVSTISYGGESTTYAESVKGRFTISRDNAKNTLYLQMNNLKPEDTAVYYCAKATSYDSIRSGSRGQGTQVTVSSDKTHTCPPCPAPEAAGGPSVFLFPPKPKDTLMISRTPEVTCVVVDVSHEDPEVKFNWYVDGVEVHNAKTKPREEQYNSTYRVVSVLTVLHQDWLNGKEYKCKVSNKALGAPIEKTISKAKGQPREPQVYTLPPSRDELTKNQVSLTCLVKGFYPSDIAVEWESNGQPENNYKTTPPVLDSDGSFLLYSKLTVDKSRWQQGNVFSCSVMHEALHNHYTQKSLSLSPGK
chain 2: QVQLVESGGGLVQPGGSLRLSCATSGFTFRNNFMSWVRQAPGKGLEWVSTISYGGESTTYAESVKGRFTISRDNAKNTLYLQMNNLKPEDTAVYYCAKATSYDSIRSGSRGQGTQVTVSSGGGGSGGGGSGGGGSQVQLVESGGGLVQAGGSLTLSCAAPGRTFGTDVVGWFRQAPGKEREFVASISRSGDGIYYDDSVKGRFTISRNNAWNTVNLQMNSLKVEDTAVYYCAAGDGWSTYDYWGQGTQVTVSSGGGGSGGGGSGGGGSEVQLVESGGGLVQTGGSLRLSCAASGGTFSRDAMAWFRQVPGKEREFVALISWSGATTNYADSVKGRFAISRDNGKNTVYLQMNRLKPADTAIYYCAADRRPMGSRSYFEPTEYDDWGQGTQVTVSSGGGGSGGGGSGGGGSDKTHTCPPCPAPEAAGGPSVFLFPPKPKDTLMISRTPEVTCVVVDVSHEDPEVKFNWYVDGVEVHNAKTKPREEQYNSTYRVVSVLTVLHQDWLNGKEYKCKVSNKALGAPIEKTISKAKGQPREPQVYTLPPSRDELTKNQVSLTCLVKGFYPSDIAVEWESNGQPENNYKTTPPVLDSDGSFFLYSRLTVDKSRWQQGNVFSCSVMHEALHNHYTQKSLSLSPGK
B4: DC00047 (other)
chain 1: QVQLVESGGGLVQPGGSLRLSCATSGFTFRNNFMSWVRQAPGKGLEWVSTISYGGESTTYAESVKGRFTISRDNAKNTLYLQMNNLKPEDTAVYYCAKATSYDSIRSGSRGQGTQVTVSSGGGGSGGGGSGGGGSQVQLVESGGGLVQPGGSLRLSCATSGFTFRNNFMSWVRQAPGKGLEWVSTISYGGESTTYAESVKGRFTISRDNAKNTLYLQMNNLKPEDTAVYYCAKATSYDSIRSGSRGQGTQVTVSSDKTHTCPPCPAPEAAGGPSVFLFPPKPKDTLMISRTPEVTCVVVDVSHEDPEVKFNWYVDGVEVHNAKTKPREEQYNSTYRVVSVLTVLHQDWLNGKEYKCKVSNKALGAPIEKTISKAKGQPREPQVYTLPPSRDELTKNQVSLTCLVKGFYPSDIAVEWESNGQPENNYKTTPPVLDSDGSFLLYSKLTVDKSRWQQGNVFSCSVMHEALHNHYTQKSLSLSPGK
chain 2: EVQLVESGGGLVQTGGSLRLSCAASGGTFSRDAMAWFRQVPGKEREFVALISWSGATTNYADSVKGRFAISRDNGKNTVYLQMNRLKPADTAIYYCAADRRPMGSRSYFEPTEYDDWGQGTQVTVSSGGGGSGGGGSGGGGSQVQLVESGGGLVQAGGSLTLSCAAPGRTFGTDVVGWFRQAPGKEREFVASISRSGDGIYYDDSVKGRFTISRNNAWNTVNLQMNSLKVEDTAVYYCAAGDGWSTYDYWGQGTQVTVSSGGGGSGGGGSGGGGSDKTHTCPPCPAPEAAGGPSVFLFPPKPKDTLMISRTPEVTCVVVDVSHEDPEVKFNWYVDGVEVHNAKTKPREEQYNSTYRVVSVLTVLHQDWLNGKEYKCKVSNKALGAPIEKTISKAKGQPREPQVYTLPPSRDELTKNQVSLTCLVKGFYPSDIAVEWESNGQPENNYKTTPPVLDSDGSFFLYSRLTVDKSRWQQGNVFSCSVMHEALHNHYTQKSLSLSPGK

target: T1, human IL-2 receptor (IL-2Rα/IL-2Rβ/γc); assay: cell-based or functional assay

Point of comparison: B4, “Fold Max signal (% pSTAT5+) Treg/NK” value 1 fold. Against it:
- B1 — higher, 4 fold
- B2 — higher, 4 fold
- B3 — higher, 4 fold

Point of comparison: B3, “Max signal (% pSTAT5+), NK” value 26 % pSTAT5+. Against it:
- B1 — lower, 6 % pSTAT5+
- B2 — higher, 27 % pSTAT5+
- B4 — lower, 0 % pSTAT5+

Point of comparison: B3, “Max signal (% pSTAT5+), Treg” value 95 % pSTAT5+. Against it:
- B1 — lower, 25 % pSTAT5+
- B2 — the same, 95 % pSTAT5+
- B4 — lower, 0 % pSTAT5+

Point of comparison: B3, “EC50 (nM) pSTAT5, NK, human PBMCs” value 0.176 nM. Against it:
- B2 — higher, 0.198 nM

Point of comparison: B2, “EC50 (nM) pSTAT5, Treg, human PBMCs” value 0.00336 nM. Against it:
- B3 — lower, < 0.1 pM

Point of comparison: B2, “fold EC50 NK/Treg” value 59 fold. Against it:
- B3 — higher, > 1760 fold
